US20020147129A1

How the values were obtained:
[1] = target: embryonic chicken AT4 receptor (chicken); test: competition for [125I]Ang IV binding, E13 chicken chorioallantoic membranes
[2] = target: embryonic chicken Ang II receptor (chicken); test: competition for 125I[Sar1Ile8]Ang II binding, E13 chicken chorioallantoic membranes
[3] = target: angiotensin AT4 receptor of Macaca fascicularis brain (Macaca fascicularis); test: competition for [125I]Ang IV binding, monkey prefrontal cortical sections
[4] = target: AT4 receptor of sheep central nervous system (sheep); test: competition for [125I]Ang IV binding, sheep cerebellar cortical membranes
[5] = target: AT4 receptor of sheep central nervous system (sheep); test: competition for 125I-LVV-haemorphin-7 binding, sheep cerebellar cortical membranes

embryonic chicken Ang II receptor (chicken), sequence (P79785 whole entry): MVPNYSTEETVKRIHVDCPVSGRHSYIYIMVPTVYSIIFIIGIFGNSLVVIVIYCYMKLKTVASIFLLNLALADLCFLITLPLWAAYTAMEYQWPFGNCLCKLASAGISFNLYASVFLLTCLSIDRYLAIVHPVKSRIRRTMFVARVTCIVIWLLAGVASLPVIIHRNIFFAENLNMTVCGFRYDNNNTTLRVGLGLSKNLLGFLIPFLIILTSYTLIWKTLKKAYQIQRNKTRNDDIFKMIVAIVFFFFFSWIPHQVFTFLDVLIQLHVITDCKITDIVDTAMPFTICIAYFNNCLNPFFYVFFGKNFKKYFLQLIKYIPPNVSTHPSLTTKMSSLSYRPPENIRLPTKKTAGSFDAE

Substance	concentration effective at competing for 50% of the sites [1] [µM]	IC50 [2] [µM]	IC50 [3] [µM]	IC50 [4] [µM]	IC50 [5] [µM]
CGP 42112 (peptide)	0.5	0.18	–	–	–
angiotensin II (from UniProt P01019 25-32) (peptide)	–	0.1	0.73	2	1.6
angiotensin III (from UniProt P01019 26-32) (peptide)	–	–	0.08	0.0069	0.077
